Data published in article PMC2842088 (Biochemistry, 2009).

Assays:
[1] = biological target: T1, HpxO (Klebsiella pneumoniae, UniProt A6T923); experiment: steady-state rate against NADPH, no saturation; type: biochemical; details: read-out: Km,NADPH; urate as co-substrate; printed as lower limit
T1 sequence (A6T923 1-384): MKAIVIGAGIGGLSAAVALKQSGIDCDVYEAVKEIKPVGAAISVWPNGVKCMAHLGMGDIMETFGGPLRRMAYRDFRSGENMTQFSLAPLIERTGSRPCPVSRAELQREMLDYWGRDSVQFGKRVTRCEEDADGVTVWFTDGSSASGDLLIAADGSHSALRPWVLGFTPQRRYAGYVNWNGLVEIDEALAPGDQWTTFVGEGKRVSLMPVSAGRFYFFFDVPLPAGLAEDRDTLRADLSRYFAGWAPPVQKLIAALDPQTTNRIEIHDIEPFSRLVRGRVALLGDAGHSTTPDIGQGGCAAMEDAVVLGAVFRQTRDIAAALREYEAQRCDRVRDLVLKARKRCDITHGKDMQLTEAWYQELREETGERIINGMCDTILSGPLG

[2] = substrate: O=c1[nH]c(=O)c2[nH]c(=O)[nH]c2[nH]1; experiment: purified protein; type: biochemical, Klebsiella pneumoniae; details: NADH as co-substrate, saturating (1.5 mM)

For `NC(=O)C1=CN([C@@H]2O[C@H](COP(=O)(O)OP(=O)(O)OC[C@H]3O[C@@H](n4cnc5c(N)ncnc54)[C@H](OP(=O)(O)O)[C@@H]3O)[C@@H](O)[C@H]2O)C=CC1` [NADPH], the Km [1] was > 1000 µM.

B1: HpxO (Klebsiella pneumoniae subsp. pneumoniae MGH 78578) (protein)
chain: MKAIVIGAGIGGLSAAVALKQSGIDCDVYEAVKEIKPVGAAISVWPNGVKCMAHLGMGDIMETFGGPLRRMAYRDFRSGENMTQFSLAPLIERTGSRPCPVSRAELQREMLDYWGRDSVQFGKRVTRCEEDADGVTVWFTDGSSASGDLLIAADGSHSALRPWVLGFTPQRRYAGYVNWNGLVEIDEALAPGDQWTTFVGEGKRVSLMPVSAGRFYFFFDVPLPAGLAEDRDTLRADLSRYFAGWAPPVQKLIAALDPQTTNRIEIHDIEPFSRLVRGRVALLGDAGHSTTPDIGQGGCAAMEDAVVLGAVFRQTRDIAAALREYEAQRCDRVRDLVLKARKRCDITHGKDMQLTEAWYQELREETGERIINGMCDTILSGPLG
B1 showed a Km [2] of 42 ± 8 µM and a kcat [2] of 42 ± 2 s⁻¹.
